The text below walks through data of PMC5290278 (Nature Communications, 2017).

The target of this experiment is T1, GST-NPHP4-C2^650-839 (human, UniProt O75161 650-839).
T1 construct: central C2 domain of NPHP4, residues 650-839; also called GST-N4-C2^2650-839 (as printed in the legend); GST fused to the central C2 domain of NPHP4; source: bacterially purified
T1 sequence (looked up): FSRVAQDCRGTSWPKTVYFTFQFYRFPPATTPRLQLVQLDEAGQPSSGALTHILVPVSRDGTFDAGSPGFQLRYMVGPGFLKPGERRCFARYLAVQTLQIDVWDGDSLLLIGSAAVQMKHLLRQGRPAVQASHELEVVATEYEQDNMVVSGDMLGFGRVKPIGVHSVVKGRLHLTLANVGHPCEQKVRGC
Nature of the experiment: pull-down; GFP-KIF13B-C2^861-1,000 held on anti-GFP immunocomplexes, washed two times in high salt buffer (600 mM NaCl, 10 mM Tris-HCl, 0.1% NP-40); bacterially purified GST-NPHP4-C2^650-839 (500 ng/µl) added in modified EBC buffer (140 mM NaCl, 10 mM Tris-HCl, 5 mM EDTA, 0.5% NP-40); standard GFP IP. To be noted: both partners purified.

B1: GFP-KIF13B-C2^861-1,000 (domain or fragment, human, UniProt Q9NQT8 861-1000, looked up)
chain: KETQENKLVCMVKILQATGLPQHLSHFVFCKYSFWDQQEPVIVAPEVDTSSSSVSKEPHCMVVFDHCNEFSVNITEDFIEHLSEGALAIEVYGHKINDPRKNPALWDLGIIQAKTRSLRDRWSEVTRKLEFWVQILEQNE
notes: made by PCR from the GFP-KIF13B plasmid and cloned into pEGFP-C1; also called KIF13B RPGRIP1N-C2 type domain; source: HEK293T, transfected, in lysate; also immunoisolated on anti-GFP beads with high salt washes
Take B1: the binding result is “binds”.
